According to publication PMC6306002:

Tested on: T1, OhsR:C125S C125S (Corynebacterium glutamicum), ORF:a3d30e29
T1 sequence: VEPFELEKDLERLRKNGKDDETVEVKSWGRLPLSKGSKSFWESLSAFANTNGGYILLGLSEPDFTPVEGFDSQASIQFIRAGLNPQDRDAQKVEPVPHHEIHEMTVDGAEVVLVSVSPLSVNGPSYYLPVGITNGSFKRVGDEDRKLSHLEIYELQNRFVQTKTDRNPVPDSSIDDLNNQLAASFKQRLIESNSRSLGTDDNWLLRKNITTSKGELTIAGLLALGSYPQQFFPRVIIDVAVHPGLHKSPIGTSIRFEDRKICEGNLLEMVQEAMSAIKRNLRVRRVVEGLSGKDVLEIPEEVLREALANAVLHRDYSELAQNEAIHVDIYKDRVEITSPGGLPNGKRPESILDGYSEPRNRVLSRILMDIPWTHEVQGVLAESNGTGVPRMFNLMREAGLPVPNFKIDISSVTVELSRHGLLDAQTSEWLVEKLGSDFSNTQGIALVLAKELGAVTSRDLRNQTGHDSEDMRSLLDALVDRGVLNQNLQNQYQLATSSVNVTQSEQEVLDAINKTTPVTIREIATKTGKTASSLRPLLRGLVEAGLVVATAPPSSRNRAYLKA
Experiment: EMSA
Conditions: EMSA: 20 mM Tris-HCl pH 7.4, 4 mM MgCl2, 100 mM NaCl, 10% glycerol, room temperature 30 min; 20 ng DNA, 0-4 ug OhsR; 6% native PAGE, 0.5x TBE, SYBR Green

With “CACCTTGTTGGTGGGCCGGGATTTTTGTTGTTTAGATTTTTGAAAGCACACTTTTGTCCCTTAACTAGTGCGTGTGTACATTCGACACCAAGATTTGGGCAATATGGTGCCCAAAATCAGGAAATCTTGCTGTCTAATGCACAACGGAAAACTGCTCACGGACGAACTAGTTGTAGCGAGCGTATTCTTTGTGTTCTCTC (double strand) [Pohr (ohr promoter, 200 bp)]” the binding was “no binding”.
